17 molecules from patent US20200123268A1 (UNIVERSIT DEGLI STUDI MAGNA GRAECIA CATANZARO, published 2020) can be followed below.

Test [1] addresses T1, CD43 #7 (CD43 with deletion of aa 69), expressed in HEK293T cells (human, UniProt P16150 20-400).
T1 construct: also called CD43 Clone #7; not shown: His tag from the vector pLenti-CMV-(insert)-Histag-GFP-2A-Puro
T1 sequence: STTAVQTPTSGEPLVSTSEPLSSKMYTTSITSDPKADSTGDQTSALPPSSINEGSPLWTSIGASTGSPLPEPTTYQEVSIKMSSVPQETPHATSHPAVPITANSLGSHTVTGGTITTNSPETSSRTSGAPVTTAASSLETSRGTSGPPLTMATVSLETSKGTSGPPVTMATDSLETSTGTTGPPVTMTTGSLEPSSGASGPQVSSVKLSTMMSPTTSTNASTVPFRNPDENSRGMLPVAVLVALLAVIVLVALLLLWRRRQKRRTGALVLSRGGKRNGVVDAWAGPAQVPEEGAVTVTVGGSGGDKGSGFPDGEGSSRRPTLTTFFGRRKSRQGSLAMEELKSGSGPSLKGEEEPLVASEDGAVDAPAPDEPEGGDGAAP
The test is described as follows: flow cytometry on transfected HEK293T cells, 1 ug/ml h-UMG1-PE, percent positive among GFP positive cells.

For test [2], the target named is T2, CD43 #8 (CD43 aa 1-400 with T69N), expressed in HEK293T cells (human, UniProt P16150 20-400).
T2 construct: also called CD43 Clone #8; not shown: His tag from the vector pLenti-CMV-(insert)-Histag-GFP-2A-Puro
T2 sequence: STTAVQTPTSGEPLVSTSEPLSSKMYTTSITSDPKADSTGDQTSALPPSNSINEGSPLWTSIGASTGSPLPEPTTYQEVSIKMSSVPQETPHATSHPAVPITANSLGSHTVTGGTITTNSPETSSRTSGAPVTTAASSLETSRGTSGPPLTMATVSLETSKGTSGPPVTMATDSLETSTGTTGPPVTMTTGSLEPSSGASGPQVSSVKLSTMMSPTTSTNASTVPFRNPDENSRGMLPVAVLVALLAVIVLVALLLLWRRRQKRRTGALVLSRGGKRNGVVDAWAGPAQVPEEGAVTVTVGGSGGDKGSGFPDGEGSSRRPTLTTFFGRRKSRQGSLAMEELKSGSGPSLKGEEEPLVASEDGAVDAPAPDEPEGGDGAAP
Described as above.

Test [3] concerns the target T3, CD43 #5 (truncated CD43, aa 91-400), expressed in HEK293T cells (human, UniProt P16150 91-400).
T3 construct: also called CD43 Clone #5; not shown: His tag from the vector pLenti-CMV-(insert)-Histag-GFP-2A-Puro
T3 sequence: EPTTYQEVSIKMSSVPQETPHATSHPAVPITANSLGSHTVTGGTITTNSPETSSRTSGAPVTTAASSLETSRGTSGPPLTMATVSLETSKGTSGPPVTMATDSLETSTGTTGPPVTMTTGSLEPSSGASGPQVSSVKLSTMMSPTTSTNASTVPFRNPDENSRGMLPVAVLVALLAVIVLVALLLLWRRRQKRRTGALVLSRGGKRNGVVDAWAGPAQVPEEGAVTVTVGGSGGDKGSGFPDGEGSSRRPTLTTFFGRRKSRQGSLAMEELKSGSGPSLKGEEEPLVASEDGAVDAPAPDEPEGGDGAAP
As to the kind of experiment: flow cytometry on transfected HEK293T cells, percent h-UMG1-PE positive among GFP positive cells.

Test [4] has as its target T4, CD43 #6 (CD43 with deletion of aa 64 to 78), expressed in HEK293T cells (human, UniProt P16150 20-400).
T4 construct: also called CD43 Clone #6; not shown: His tag from the vector pLenti-CMV-(insert)-Histag-GFP-2A-Puro
T4 sequence: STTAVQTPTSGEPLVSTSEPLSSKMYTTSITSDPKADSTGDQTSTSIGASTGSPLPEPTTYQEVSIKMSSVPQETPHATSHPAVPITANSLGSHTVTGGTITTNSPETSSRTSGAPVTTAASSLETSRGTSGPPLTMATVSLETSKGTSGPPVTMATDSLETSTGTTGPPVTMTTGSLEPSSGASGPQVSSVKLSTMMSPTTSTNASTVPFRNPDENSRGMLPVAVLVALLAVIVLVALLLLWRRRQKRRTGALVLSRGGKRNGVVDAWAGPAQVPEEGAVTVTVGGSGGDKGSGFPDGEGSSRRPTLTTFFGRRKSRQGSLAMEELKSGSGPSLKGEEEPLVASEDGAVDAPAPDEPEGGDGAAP
Described as above.

Test [5] concerns the target T5, human CD43, endogenous, on primary cells and cell lines that carry the UMG1 epitope (human, UniProt P16150 20-400, native glycosylation of the cell concerned).
T5 construct: also called UMG1 antigen; the target
T5 sequence: T2 sequence with N50T
The test is described as follows: flow cytometry, antibody at 1 ug/ml, FITC mouse anti-human IgG secondary; histogram grid, cell line not labelled (HPB-ALL or H9).
Description: (§1) Each screening was performed twice, for a total of 4 replicates.

For test [6], the target named is T5, human CD43, endogenous, on primary …. As to the kind of experiment: flow cytometry, antibody at 1 ug/ml, FITC mouse anti-human IgG secondary; cell line of the histograms not labelled (HPB-ALL or H9).
Description: as §1

Positions count from the first letter of the chain named.

B1: h-UMG1-PE (phycoerythrin-conjugated h-UMG1) (antibody, human IgG1, kappa, V domains shown)
VH: EVQLVESGGGLVQPGGSLRLSCVASGFTFSSFGMHWVRQAPGKGLEWVAYISSGSGNFYYVDTVKGRFTISRDNAKNSLYLQMNSLRAEDTAVYYCARSTYYHGSRGAMDYWGQGTLVTVSS
VL: QVVMTQSPAFLSVTPGEKVTITCSASSSVSSMYWYQLKPDQAPKLLIYDTSKMASGVPIRFSGSGSGTDFTFTVSSVEAEDAATYYCQQWSSYPPITFGGGTKVEIKR
modifications: phycoerythrin conjugate, site not stated
notes: also called h-UMG1-PE conjugated antibody
In the case of B1, the binding result was “binds” in test [1], “binds” in test [2], “no binding (tested: 1 ug/ml)” in test [3] and “no binding (tested: 1 ug/ml)” in test [4].

B2: humanized UMG1 antibody H3-L3 (VH3 + VL3) (antibody, IgG1, V domains shown)
VH: B1 VH
VL: QVVMTQSPAFLSVTPGEKVTITCSASSSVSSMYWYQQKPDQAPKLLIYDTSKMASGVPSRFSGSGSGTDFTFTISSLEAEDAATYYCQQWSSYPPITFGGGTKVEIK
notes: The label follows the pattern H3-L4
Take B2: the binding result in test [5] was “binds”.

B3: humanized UMG1 antibody H3-L1 (VH3 + VL1) (antibody, IgG1, V domains shown)
VH: B1 VH
VL: EIVLTQSPATLSLSPGERATLSCSASSSVSSMYWYQQKPGLAPRLLIYDTSKMASGIPDRFSGSGSGTDFTLTISRLEPEDFAVYYCQQWSSYPPITFGQGTRLEIK
notes: as for B2
As for B3, the binding result in test [5] is on record as “binds”.

B4: humanized UMG1 antibody H2-L3 (VH2 + VL3) (antibody, IgG1, V domains shown)
VH: B1 VH with A49S
VL: B2 VL
notes: as for B2
B4: in test [5], the binding result is “binds”.

B5: humanized UMG1 antibody H2-L1 (VH2 + VL1) (antibody, IgG1, V domains shown)
VH: B1 VH with A49S
VL: B3 VL
notes: as for B2
Turning to B5, in test [5], the binding result is given as “binds”.

B6: humanized UMG1 antibody H2-L2 (VH2 + VL2) (antibody, IgG1, V domains shown)
VH: B1 VH with A49S
VL: B3 VL with V3A, Q37L, D59I, I74V, L77V
notes: as for B2
For the molecule B6, the binding result in test [5] is recorded as “binds”.

B7: humanized UMG1 antibody H4-L4 (VH4 + VL4) (antibody, IgG1, V domains shown)
VH: B1 VH with E1Q, L11V, A75S, S78T
VL: B2 VL with Q37L, S59I, I74V, L77V
notes: as for B2
Turning to B7, in test [5], the binding result was “binds”.

B8: humanized UMG1 antibody H1-L2 (VH1 + VL2) (antibody, IgG1, V domains shown)
VH: B1 VH with V23A, A49S
VL: B3 VL with V3A, Q37L, D59I, I74V, L77V
notes: as for B2
For the molecule B8, the binding result in test [5] is recorded as “binds”.

B9: humanized UMG1 antibody H4-L1 (VH4 + VL1) (antibody, IgG1, V domains shown)
VH: B1 VH with E1Q, L11V, A75S, S78T
VL: B3 VL
notes: as for B2
In the case of B9, in test [5], the binding result is given as “binds”.

B10: humanized UMG1 antibody H1-L4 (VH1 + VL4) (antibody, IgG1, V domains shown)
VH: B1 VH with V23A, A49S
VL: B2 VL with Q37L, S59I, I74V, L77V
notes: as for B2
As to B10, the binding result in test [5] is on record as “binds”.

B11: humanized UMG1 antibody H4-L2 (VH4 + VL2) (antibody, IgG1, V domains shown)
VH: B1 VH with E1Q, L11V, A75S, S78T
VL: B3 VL with V3A, Q37L, D59I, I74V, L77V
notes: as for B2
B11: in test [5], the binding result is “binds”.

B12: humanized UMG1 antibody H4-L3 (VH4 + VL3) (antibody, IgG1, V domains shown)
VH: B1 VH with E1Q, L11V, A75S, S78T
VL: B2 VL
notes: as for B2
Turning to B12, in test [5], the binding result was “binds”.

B13: humanized UMG1 antibody H3-L2 (VH3 + VL2) (antibody, IgG1, V domains shown)
VH: B1 VH
VL: B3 VL with V3A, Q37L, D59I, I74V, L77V
notes: as for B2
As to B13, in test [5], the binding result is recorded as “binds”.

B14: humanized UMG1 antibody H1-L3 (VH1 + VL3) (antibody, IgG1, V domains shown)
VH: B1 VH with V23A, A49S
VL: B2 VL
notes: as for B2
With B14, the binding result in test [5] is “binds”.

B15: humanized UMG1 antibody H2-L4 (VH2 + VL4) (antibody, IgG1, V domains shown)
VH: B1 VH with A49S
VL: B2 VL with Q37L, S59I, I74V, L77V
notes: as for B2
In the case of B15, the binding result in test [5] was “binds”.

B16: humanized UMG1 antibody H1-L1 (VH1 + VL1) (antibody, IgG1, V domains shown)
VH: B1 VH with V23A, A49S
VL: B3 VL
notes: as for B2
Regarding B16, in test [5], the binding result is given as “binds”.

B17: ch-UMG1 (chimeric antibody: murine UMG1 variable regions on human IgG1 constant regions) (antibody, V domains shown)
VH: DVQLVESGGGLVQPGGSRKLSCVASGFTFSSFGMHWVRQAPEKGLEWVAYISSGSGNFYYVDTVKGRFTISRDNPKNTLFLQMTSLRSEDTAMYYCARSTYYHGSRGAMDYWGQGTSVTVSS
VL: QIALTQSPAIMSASPGEKVTMTCSASSSVSSMYWYQLKPGSSPRLLIYDTSKMASGVPIRFSGSGSGTSFSLTVSRVEAEDAATYYCQQWSSYPPITFGAGSKLELKR
notes: also called chimeric mAb ch-UMG1; chimeric mAb
Consider B17, for which the binding result in test [6] is given as “binds”.
